Experimental data published in PMC11315924.

Target: T1, full-length human MICAL1 (human) (UniProt Q8TDZ2)
T1 sequence: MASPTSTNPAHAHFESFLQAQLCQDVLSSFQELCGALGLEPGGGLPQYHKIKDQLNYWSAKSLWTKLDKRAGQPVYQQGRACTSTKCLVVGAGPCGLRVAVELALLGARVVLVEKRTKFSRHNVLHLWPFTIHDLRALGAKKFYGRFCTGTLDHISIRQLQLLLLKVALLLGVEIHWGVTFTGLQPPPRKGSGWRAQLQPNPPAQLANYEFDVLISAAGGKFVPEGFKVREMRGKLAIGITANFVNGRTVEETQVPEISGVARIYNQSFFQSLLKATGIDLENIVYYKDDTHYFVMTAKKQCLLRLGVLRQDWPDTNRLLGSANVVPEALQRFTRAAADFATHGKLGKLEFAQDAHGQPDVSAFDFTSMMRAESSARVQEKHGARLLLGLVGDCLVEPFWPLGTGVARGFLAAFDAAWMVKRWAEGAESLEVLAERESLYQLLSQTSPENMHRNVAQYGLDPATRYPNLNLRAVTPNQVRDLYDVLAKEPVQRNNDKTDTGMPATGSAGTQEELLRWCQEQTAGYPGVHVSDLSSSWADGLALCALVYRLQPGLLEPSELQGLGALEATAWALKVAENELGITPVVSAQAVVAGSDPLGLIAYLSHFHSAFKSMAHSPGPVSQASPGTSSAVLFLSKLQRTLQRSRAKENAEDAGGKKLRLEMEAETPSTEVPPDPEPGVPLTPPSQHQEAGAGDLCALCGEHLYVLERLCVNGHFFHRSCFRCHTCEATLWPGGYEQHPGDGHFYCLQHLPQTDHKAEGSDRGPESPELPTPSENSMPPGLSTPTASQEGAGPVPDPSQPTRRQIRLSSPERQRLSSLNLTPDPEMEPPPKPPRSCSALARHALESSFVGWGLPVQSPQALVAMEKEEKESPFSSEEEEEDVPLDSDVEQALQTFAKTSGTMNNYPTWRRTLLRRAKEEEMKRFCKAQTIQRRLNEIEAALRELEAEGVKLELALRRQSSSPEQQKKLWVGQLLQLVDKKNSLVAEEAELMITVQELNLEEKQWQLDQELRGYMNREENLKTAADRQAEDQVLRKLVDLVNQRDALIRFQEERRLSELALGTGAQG

fold enhancement of NADPH turnover of MICAL1 (0.5 μM) on adding Rab8a (40 μM): 4 fold
Substance: human Rab8a 1-181 with the constitutively active mutation Q67L (from UniProt P61006 1-181) (domain or fragment)
